Like-named read-outs stand apart in the source and are kept apart here.

For experiment [1], the target named is hexon protein on the viral capsid of Ad5 vectors with SpyTag inserted into HVR loops (loop not specified). As to the kind of experiment: covalent coupling of SpyCatcher to virions, SDS-PAGE band densitometry (ImageJ).
The target of experiment [2] is T1, Ad5-HVR5-DogTag Hexon (human adenovirus serotype 5 (Ad5), UniProt P04133 21-952).
T1 construct: also called HVR5DT; Ad5(GFP) HVR5 DogTag

The target of experiment [3] is T1, Ad5-HVR5-DogTag Hexon. The source holds these as a separate data set.
The target in a further experiment is T2, Ad5-HVR2-DogTag Hexon (human adenovirus serotype 5 (Ad5), UniProt P04133 30-952).
T2 construct: also called HVR2DT; hexon-DogTag

In a further experiment the target is T3, Ad5-HVR1-DogTag Hexon (human adenovirus serotype 5 (Ad5), UniProt P04133 2-952).
T3 construct: also called HVR1DT; hexon-DogTag

Experiment [4] concerns the target T1, Ad5-HVR5-DogTag Hexon. The source holds these as a separate data set.

In turn, SpyCatcher (designed binder) returned a % of hexon protein coupled in experiment [1] of over 50%.

B1: DogCatcher-NANP18 (other)
chain: MAHHHHHHVGTGKLGDIEFIKVNKNDKKPLRGAVFSLQKQHPDYPDIYGAIDQNGTYQNVRTGEDGKLTFKNLSDGKYRLFENSEPAGYKPVQNKPIVAFQIVNGEVRDVTSIVPQGSGGSGGSNANPNANPNANPNANPNANPNANPNANPNANPNANPNANPNANPNANPNANPNANPNANPNANPNANPNANP
notes: also called DC-NANP18
Take B1: in the experiment with Ad5-HVR5-DogTag Hexon [2], the binding result is on record as “binds”.

B2: DogCatcher-NANP9 (other)
chain: MAHHHHHHVGTGKLGDIEFIKVNKNDKKPLRGAVFSLQKQHPDYPDIYGAIDQNGTYQNVRTGEDGKLTFKNLSDGKYRLFENSEPAGYKPVQNKPIVAFQIVNGEVRDVTSIVPQGSGGSGGSNANPNANPNANPNANPNANPNANPNANPNANPNANP
Turning to B2, in the experiment with Ad5-HVR5-DogTag Hexon [2], the binding result is reported as “binds”.

B3: Biotin-SnoopTagJr (peptide)
peptide: GKLGSIEFIKVNK
modifications: N-terminal biotin
notes: also called SnJr-biotin; Biotinylated SnJr-peptide
With B3, in the experiment with Ad5-HVR5-DogTag Hexon [3], the binding result is “binds”.

B4: DogCatcher (designed binder)
chain: MGSSHHHHHHSSGLVPRGSHMKLGDIEFIKVNKNDKKPLRGAVFSLQKQHPDYPDIYGAIDQNGTYQNVRTGEDGKLTFKNLSDGKYRLFENSEPAGYKPVQNKPIVAFQIVNGEVRDVTSIVPQ
notes: His-tagged DogCatcher expressed in E. coli; forms a spontaneous isopeptide bond with DogTag; also called DC; RrgACatcher
With B4, the “coverage of capsid hexon (%)” value with Ad5-HVR2-DogTag Hexon, in the experiment with Ad5-HVR1-DogTag Hexon and with Ad5-HVR5-DogTag Hexon [4] was over 90% in each case.

B5: DogCatcher-NANP Domain (other)
chain: MAHHHHHHVGTGKLGDIEFIKVNKNDKKPLRGAVFSLQKQHPDYPDIYGAIDQNGTYQNVRTGEDGKLTFKNLSDGKYRLFENSEPAGYKPVQNKPIVAFQIVNGEVRDVTSIVPQGSGGSGGSNANPNVDPNANPNVDPNANPNVDPNANPNANPNANPNANPNANPNANPNANPNANPNANPNANPNANPNANPNANPNANPNANPNANPNANPNVDPNANPNANPNANPNANPNANPNANPNANPNANPNANPNANPNANPNANPNANPNANPNANPNANPNANPNANP
As for B5, in the experiment with Ad5-HVR5-DogTag Hexon [2], the binding result is recorded as “binds”.
